Results on 84 variants are retold here after the RNAGym collection of RNA variant scans (doi:10.1101/gr.219683.116).

First the molecules themselves.
B1: mRNA-splicing (parent)
chain: AGUUGCUGCUGGGAGCUCCAGCACAGUGAAAUGGACAGAAGGGCAGAGCAA

Variants of B1 are the subject of the data set. The data set is described as follows: exon inclusion enrichment index; higher = more inclusion; WT1 exon 5 minigene, HEK293.
On to G5U G8U C9U U32A G33C, for which the “exon inclusion enrichment index” value was determined as 0.219. With G5A C6G U7G C9A G34C A35C the figure was 0.00219. Then G5C C6U G8C C9U U10C A45C G46C, with 1.22. As to U3A U4A G5A U7C G8A U10C, the “exon inclusion enrichment index” value worked out at 2.15. Then G5A C6U U7A G8U C9A U32A G33U, with 0.0199; and G5C C6A U7C G8A U10A A25U, with 0.205. As to G5A C6U U7A G8U C9A A37G G38U, the “exon inclusion enrichment index” value was 0.0165. With G43C C44G the figure was 1.62; with G5C C6G U7C U10C U27A G28C, 3.86; with G5A C6G U7G C9A A25G G26U, 0.0111. With C16A U17G the figure was 0.0435. Then G5A C6G U7G C9G U10A, with 0.00648; and G5C C6A U7C G8A U10A A20G, with 0.306. On to G5A C6U U7A G8U C9A A35U C36G, for which the “exon inclusion enrichment index” value came to 0.00319. Take G15A C16U: the “exon inclusion enrichment index” value was 0.014.

Take C6A U7A C9A U10A A14U G15U: the “exon inclusion enrichment index” value is 0.295.

Regarding G5C C6U G8C C9U U10C U27C G28C, the “exon inclusion enrichment index” value is 2.52. As to G5U G8U C9U A20C G21A, the “exon inclusion enrichment index” value came to 0.0355. Regarding C6A U7C C9A U10C G28C A29C, the “exon inclusion enrichment index” value was 2.62. With A37U G38U the figure was 0.0123; with C6A U7C C9A U10C G38U A39C, 2.79. Then G5U G8U C9U G43A C44A, with 0.667. Take G5A C6U U7A G8U C9A G28U A29U: the “exon inclusion enrichment index” value was 0.00744.

With G5C C6A U7C G8U C9A U10A, the “exon inclusion enrichment index” value amounted to 0.0885. Then G5C G8C C9U U10C, with 0.273; and G5C C6A U7C G8A U10A G15A C16A, with 0.00997; and U4C C6A U7C G8A U10A, with 1.12. Then C6A U7A C9A U10A A31U U32G, with 0.311. With G5A C6G U7G C9A A25C G26U the figure was 0.00184; with A37C, 0.637; with A45U G46A, 0.0722. Turning to G5U C6U U7C G8U C9U, the “exon inclusion enrichment index” value came to 0.154. On to C6A U7A C9A U10A A29U A30G, for which the “exon inclusion enrichment index” value is 0.739. With G5A C6U U7A G8U C9A G46U A47G the figure was 0.0512; with C24G, 0.0337; with G5A U7C G8A U10C C24A A25C, 3.6. Then G5U G8U C9A U10A, with 0.0322; and G5A C6U U7A G8A, with 0.217.

G8A C9G: the “exon inclusion enrichment index” value was 0.0723.

For the variant G41A, the “exon inclusion enrichment index” value is 0.0829. Then C18U C19A, with 0.302.

As for C6A U7C C9A U10C G46U A47C, the “exon inclusion enrichment index” value was found to be 3.45.

In the case of G5C C6U G8C C9U U10C A30C A31C, the “exon inclusion enrichment index” value stood at 2.9. With G5C C6U G8C C9U U10C G43U C44A the figure was 0.0354; with G5C C6U G8C C9U U10C G43U C44G, 0.398. With G5U G8U C9U G12U G13U the figure was 0.000363; with C6A U7C C9A U10C C16A, 3.82. With G5C C6U G8C C9U U10C A23C C24U the figure was 0.867.

For the variant G43A C44U, the “exon inclusion enrichment index” value is 0.129. With G5C C6A U7C G8A U10A U32G G33U the figure was 0.009; with G5C C6A U7C G8A U10A U32G G33C, 0.0862.

Turning to G5A C6U U7A G8U C9A C16U U17C, the “exon inclusion enrichment index” value worked out at 0.0363. With C6A U7C C9A U10C A29C A30C the figure was 3.72; with G5C C6U G8C C9U U10C G26U U27C, 3.41; with G5C C6A U7C G8A U10A C19A A20G, 0.00417. With G5C C6G U7A C9A U10A the figure was 0.95; with G5C C6U G8C C9U U10C U27G G28U, 0.00454; with G5A C6U G8A C9A, 0.0634. Then G5A C6U U7A G8U C9A U27G, with 0.0103; and G5U G8U C9U G43U C44G, with 0.112. As to G5A C6U U7A G8U C9A A23U C24U, the “exon inclusion enrichment index” value was 0.000794. Then C6A U7A C9A U10A A40U G41U, with 0.373; and G34C, with 0.0362. With G34A the figure was 0.0592; with G5A C6U U7A G8U C9A G26C, 0.142. Then G5A C6G U7G C9A A31U, with 0.00278. As to G5A C6G U7G C9A G15A C16A, the “exon inclusion enrichment index” value turned out to be 0.000736. Consider G5A C6U U7A G8U C9A A39C A40U, for which the “exon inclusion enrichment index” value was 0.0208. Then G5C C6G U7C U10C G34U A35G, with 1.24; and G5C C6U G8C C9U U10C A23G C24A, with 3.38. With G5A C6G U7G C9A A40G the figure was 0.00228; with G5C C6U G8C C9U U10C A47C G48A, 1.12. For G5A C6U U7A G8U C9A G11U G12C, the “exon inclusion enrichment index” value amounted to 0.033. With G5A C6U U7A G8U C9A G11U G12A the figure was 0.00404; with U3G G5A C6U U7A G8U C9A, 0.0113. G5A C6U G8U C9U: the “exon inclusion enrichment index” value came to 0.0357. For the variant G5U G8U C9U A40U G41C, the “exon inclusion enrichment index” value amounted to 0.508. Then U3A U4A C6A U7A C9A U10A, with 0.441; and G5C C6G U7C U10C A31U U32G, with 2.24; and C6A U7C C9A U10C G26U U27G, with 4.12. With G5A U7C G8A U10C G43A C44U the figure was 2.57; with G5C C6U G8C C9U U10C C22U A23U, 1.09; with C6A U7C C9A U10C G26U, 3.34. Turning to G5A U7C G8A U10C A45C G46A, the “exon inclusion enrichment index” value amounted to 1.42.
